Source: patent US20260097113A1 (Pfizer, published 2026)

Assays:
[1] = biological target: RSV A + RSV B bivalent composition (RSV subtype A; RSV subtype B); assay: AM14 Fab titration by SEC; Target cycle; 8 M 40°C
[2] = biological target: RSV A + RSV B bivalent composition (RSV subtype A; RSV subtype B); assay: AM14 Fab titration by SEC; Low-Fast cycle; 1 M 40°C (second value)
[3] = biological target: RSV A + RSV B bivalent composition (RSV subtype A; RSV subtype B); assay: AM14 Fab titration by SEC; composition of Table 17; Pre-lyo Prep 2, T0 (second value)
[4] = biological target: RSV A + RSV B bivalent composition (RSV subtype A; RSV subtype B); assay: AM14 Fab titration by SEC; High-Slow 2 cycle; 3 M 40°C
[5] = biological target: T1, RSV F protein of subtype A comprising a polypeptide of SEQ ID NO: 1 and a polypeptide of SEQ ID NO: 2 (RSV subtype A, UniProt P11209 137-513; P03420 26-109); assay: AM14 ELISA; F14 (pH 7, 50 mM NaCl, 4.5% sucrose); 2 wk 25°C
T1 construct: Stabilized prefusion F trimer made of three F2-F1 heterodimers; Produced recombinantly in CHO cells; also called RSV A; RSVA
T1 chain 1: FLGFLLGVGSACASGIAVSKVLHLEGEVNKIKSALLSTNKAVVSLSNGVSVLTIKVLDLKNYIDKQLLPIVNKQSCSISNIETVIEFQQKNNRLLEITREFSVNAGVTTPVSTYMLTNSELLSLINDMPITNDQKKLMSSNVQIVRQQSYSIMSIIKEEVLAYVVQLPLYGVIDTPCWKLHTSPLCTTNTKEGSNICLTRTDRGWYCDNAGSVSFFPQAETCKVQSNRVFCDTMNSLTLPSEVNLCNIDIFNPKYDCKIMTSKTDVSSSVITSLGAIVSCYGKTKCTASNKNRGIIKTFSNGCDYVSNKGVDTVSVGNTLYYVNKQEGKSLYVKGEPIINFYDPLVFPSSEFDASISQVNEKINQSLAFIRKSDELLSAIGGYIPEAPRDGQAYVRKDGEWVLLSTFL
T1 chain 2: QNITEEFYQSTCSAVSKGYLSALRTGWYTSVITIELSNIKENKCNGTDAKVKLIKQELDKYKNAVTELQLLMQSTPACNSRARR

[6] = biological target: T1, RSV F protein of subtype A comprising a …; assay: AM14 ELISA; F13 (pH 7, 100 mM NaCl, 4.5% sucrose); T0
[7] = biological target: T1, RSV F protein of subtype A comprising a …; assay: AM14 ELISA; F9 (pH 8, 50 mM NaCl, 4.5% sucrose); 1 wk 5°C
[8] = biological target: T1, RSV F protein of subtype A comprising a …; assay: AM14 ELISA; F18 (pH 7, 50 mM NaCl, 3% sucrose + 3% mannitol); 2 wk 25°C
[9] = biological target: T1, RSV F protein of subtype A comprising a …; assay: AM14 ELISA; F8 (pH 7, 50 mM NaCl, 0% sucrose); 1 wk 25°C
[10] = biological target: T1, RSV F protein of subtype A comprising a …; assay: AM14 ELISA; F10 (pH 7, 50 mM NaCl, 4.5% sucrose); 2 wk 5°C
[11] = biological target: T1, RSV F protein of subtype A comprising a …; assay: AM14 ELISA; F5 (pH 6, 100 mM NaCl, 9.0% sucrose); 2 wk 25°C
[12] = biological target: T1, RSV F protein of subtype A comprising a …; assay: AM14 ELISA; F2 (pH 8, 0 mM NaCl, 0% sucrose); 2 wk 5°C
[13] = biological target: T1, RSV F protein of subtype A comprising a …; assay: AM14 ELISA; F8 (pH 7, 50 mM NaCl, 0% sucrose); T0
[14] = biological target: T1, RSV F protein of subtype A comprising a …; assay: AM14 ELISA; F18 (pH 7, 50 mM NaCl, 3% sucrose + 3% mannitol); 2 wk 5°C
[15] = biological target: T1, RSV F protein of subtype A comprising a …; assay: AM14 ELISA; F6 (pH 7, 0 mM NaCl, 4.5% sucrose); 1 wk 5°C
[16] = biological target: T1, RSV F protein of subtype A comprising a …; assay: AM14 ELISA; F19 (pH 7, 50 mM NaCl, 3% trehalose + 3% mannitol); 1 wk 5°C

Molecule	Prefusion Content (%) [1]	Prefusion Content (%) [2]	Prefusion Content (%) [3]	Prefusion Content (%) [4]	AM14 prefusion content (%), relative to standard [5]	AM14 prefusion content (%), relative to standard [6]	AM14 prefusion content (%), relative to standard [7]	AM14 prefusion content (%), relative to standard [8]	AM14 prefusion content (%), relative to standard [9]	AM14 prefusion content (%), relative to standard [10]	AM14 prefusion content (%), relative to standard [11]	AM14 prefusion content (%), relative to standard [12]	AM14 prefusion content (%), relative to standard [13]	AM14 prefusion content (%), relative to standard [14]	AM14 prefusion content (%), relative to standard [15]	AM14 prefusion content (%), relative to standard [16]
AM14 Fab	67%	70%	82%	59%	–	–	–	–	–	–	–	–	–	–	–	–
AM14 (trimeric prefusion specific antibody of the AM14 ELISA) (antibody, V domains shown, Antibody as used in the AM14 ELISA, detected with an HRP-labeled secondary antibody) VH: EVQLVESGGGVVQPGRSLRLSCAASGFSFSHYAMHWVRQAPGKGLEWVAVISYDGENTYYADSVKGRFSISRDNSKNTVSLQMNSLRPEDTALYYCARDRIVDDYYYYGMDVWGQGATVTVSS VL: DIQMTQSPSSLSASVGDRVTITCQASQDIKKYLNWYHQKPGKVPELLMHDASNLETGVPSRFSGRGSGTDFTLTISSLQPEDIGTYYCQQYDNLPPLTFGGGTKVEIKR	–	–	–	–	78%	97%	94%	78%	86%	71%	98%	75%	100%	85%	101%	74%
